From patent US20260201008A1, “SECRETIN-DERIVED GLP1R SELECTIVE AGONISTS” (GUBRA A/S, priority 2023, published 2026)
Numbered stars: 1 amine (or outer) side, 2 acyl side, 3 side chain; on linkers, the order of the positions; unused ones are H or OH. Square brackets hold non-standard residues; d marks the D form. Side chains are listed from the residue outwards. Ends that are not written are not given here. * marks the point of attachment. C20 diacid = O=C(O)CCCCCCCCCCCCCCCCCCC(=O)*; γGlu = O=C(O)[C@H](CCC(=O)[*:2])N[*:1]; AEEA = NCCOCCOCC(=O)O; Aib = CC(C)(N)C(=O)O

Tests used:
[1] = target: human GLP-1 receptor (hGLP1R) (human, UniProt P43220 24-463); assay: cell-based or functional assay
[2] = target: human secretin receptor (hSCTR) (human, UniProt P47872 23-440); assay: cell-based or functional assay
Chain of human secretin receptor (hSCTR) (P47872 23-440): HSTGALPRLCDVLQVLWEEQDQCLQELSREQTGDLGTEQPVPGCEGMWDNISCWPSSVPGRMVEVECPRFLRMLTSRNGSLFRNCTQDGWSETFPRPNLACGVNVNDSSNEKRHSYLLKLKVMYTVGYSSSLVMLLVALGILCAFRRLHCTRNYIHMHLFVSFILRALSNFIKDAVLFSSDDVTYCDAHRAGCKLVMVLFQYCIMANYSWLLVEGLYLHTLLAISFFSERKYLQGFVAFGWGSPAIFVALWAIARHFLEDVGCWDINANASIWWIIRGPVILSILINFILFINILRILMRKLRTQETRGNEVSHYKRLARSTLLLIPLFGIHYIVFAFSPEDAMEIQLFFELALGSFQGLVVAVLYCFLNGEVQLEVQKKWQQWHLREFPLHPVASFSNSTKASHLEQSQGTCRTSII

Row | pEC50 hGLPR1 [1] | pEC50 hSCTR [2] | Binder
1 | 10.3 -log M | 6.8 -log M | H[Aib]EGTFTSDVSWLLEGAALQRFIQWLV-NH2 (N-terminus assumed; SMILES CC[C@H](C)[C@H](NC(=O)[C@H](Cc1ccccc1)NC(=O)[C@H](CCCNC(=N)N)NC(=O)[C@H](CCC(N)=O)NC(=O)[C@H](CC(C)C)NC(=O)[C@H](C)NC(=O)[C@H](C)NC(=O)CNC(=O)[C@H](CCC(=O)O)NC(=O)[C@H](CC(C)C)NC(=O)[C@H](CC(C)C)NC(=O)[C@H](Cc1c[nH]c2ccccc12)NC(=O)[C@H](CO)NC(=O)[C@@H](NC(=O)[C@H](CC(=O)O)NC(=O)[C@H](CO)NC(=O)[C@@H](NC(=O)[C@H](Cc1ccccc1)NC(=O)[C@@H](NC(=O)CNC(=O)[C@H](CCC(=O)O)NC(=O)C(C)(C)NC(=O)[C@@H](N)Cc1c[nH]cn1)[C@@H](C)O)[C@@H](C)O)C(C)C)C(=O)N[C@@H](CCC(N)=O)C(=O)N[C@@H](Cc1c[nH]c2ccccc12)C(=O)N[C@@H](CC(C)C)C(=O)N[C@H](C(N)=O)C(C)C) [SEQ ID NO: 183]
2 | 10.3 -log M | 6.8 -log M | H[Aib]EGTFTSDVSGLLEGAALQRFIQWLV-NH2 (N-terminus assumed; SMILES CC[C@H](C)[C@H](NC(=O)[C@H](Cc1ccccc1)NC(=O)[C@H](CCCNC(=N)N)NC(=O)[C@H](CCC(N)=O)NC(=O)[C@H](CC(C)C)NC(=O)[C@H](C)NC(=O)[C@H](C)NC(=O)CNC(=O)[C@H](CCC(=O)O)NC(=O)[C@H](CC(C)C)NC(=O)[C@H](CC(C)C)NC(=O)CNC(=O)[C@H](CO)NC(=O)[C@@H](NC(=O)[C@H](CC(=O)O)NC(=O)[C@H](CO)NC(=O)[C@@H](NC(=O)[C@H](Cc1ccccc1)NC(=O)[C@@H](NC(=O)CNC(=O)[C@H](CCC(=O)O)NC(=O)C(C)(C)NC(=O)[C@@H](N)Cc1c[nH]cn1)[C@@H](C)O)[C@@H](C)O)C(C)C)C(=O)N[C@@H](CCC(N)=O)C(=O)N[C@@H](Cc1c[nH]c2ccccc12)C(=O)N[C@@H](CC(C)C)C(=O)N[C@H](C(N)=O)C(C)C) [SEQ ID NO: 182]
3 | 10.1 -log M | 6.3 -log M | H[Aib]EGTFTSDVS[Aib]LLEGAALQRFIQWLV-NH2 (N-terminus assumed; SMILES CC[C@H](C)[C@H](NC(=O)[C@H](Cc1ccccc1)NC(=O)[C@H](CCCNC(=N)N)NC(=O)[C@H](CCC(N)=O)NC(=O)[C@H](CC(C)C)NC(=O)[C@H](C)NC(=O)[C@H](C)NC(=O)CNC(=O)[C@H](CCC(=O)O)NC(=O)[C@H](CC(C)C)NC(=O)[C@H](CC(C)C)NC(=O)C(C)(C)NC(=O)[C@H](CO)NC(=O)[C@@H](NC(=O)[C@H](CC(=O)O)NC(=O)[C@H](CO)NC(=O)[C@@H](NC(=O)[C@H](Cc1ccccc1)NC(=O)[C@@H](NC(=O)CNC(=O)[C@H](CCC(=O)O)NC(=O)C(C)(C)NC(=O)[C@@H](N)Cc1c[nH]cn1)[C@@H](C)O)[C@@H](C)O)C(C)C)C(=O)N[C@@H](CCC(N)=O)C(=O)N[C@@H](Cc1c[nH]c2ccccc12)C(=O)N[C@@H](CC(C)C)C(=O)N[C@H](C(N)=O)C(C)C) [SEQ ID NO: 179]
4 | 10.3 -log M | 6.7 -log M | H[Aib]EGTFTSDVSYLLEGAALQRFIQWLV-NH2 (N-terminus assumed; SMILES CC[C@H](C)[C@H](NC(=O)[C@H](Cc1ccccc1)NC(=O)[C@H](CCCNC(=N)N)NC(=O)[C@H](CCC(N)=O)NC(=O)[C@H](CC(C)C)NC(=O)[C@H](C)NC(=O)[C@H](C)NC(=O)CNC(=O)[C@H](CCC(=O)O)NC(=O)[C@H](CC(C)C)NC(=O)[C@H](CC(C)C)NC(=O)[C@H](Cc1ccc(O)cc1)NC(=O)[C@H](CO)NC(=O)[C@@H](NC(=O)[C@H](CC(=O)O)NC(=O)[C@H](CO)NC(=O)[C@@H](NC(=O)[C@H](Cc1ccccc1)NC(=O)[C@@H](NC(=O)CNC(=O)[C@H](CCC(=O)O)NC(=O)C(C)(C)NC(=O)[C@@H](N)Cc1c[nH]cn1)[C@@H](C)O)[C@@H](C)O)C(C)C)C(=O)N[C@@H](CCC(N)=O)C(=O)N[C@@H](Cc1c[nH]c2ccccc12)C(=O)N[C@@H](CC(C)C)C(=O)N[C@H](C(N)=O)C(C)C) [SEQ ID NO: 181]
5 | 10.4 -log M | 7.3 -log M | H[Aib]EGTFTSDWSGLLEGAALQRFIQWLV-NH2 (N-terminus assumed; SMILES CC[C@H](C)[C@H](NC(=O)[C@H](Cc1ccccc1)NC(=O)[C@H](CCCNC(=N)N)NC(=O)[C@H](CCC(N)=O)NC(=O)[C@H](CC(C)C)NC(=O)[C@H](C)NC(=O)[C@H](C)NC(=O)CNC(=O)[C@H](CCC(=O)O)NC(=O)[C@H](CC(C)C)NC(=O)[C@H](CC(C)C)NC(=O)CNC(=O)[C@H](CO)NC(=O)[C@H](Cc1c[nH]c2ccccc12)NC(=O)[C@H](CC(=O)O)NC(=O)[C@H](CO)NC(=O)[C@@H](NC(=O)[C@H](Cc1ccccc1)NC(=O)[C@@H](NC(=O)CNC(=O)[C@H](CCC(=O)O)NC(=O)C(C)(C)NC(=O)[C@@H](N)Cc1c[nH]cn1)[C@@H](C)O)[C@@H](C)O)C(=O)N[C@@H](CCC(N)=O)C(=O)N[C@@H](Cc1c[nH]c2ccccc12)C(=O)N[C@@H](CC(C)C)C(=O)N[C@H](C(N)=O)C(C)C) [SEQ ID NO: 187]
6 | 10.2 -log M | 7.2 -log M | H[Aib]EGTFTSDVSRLLEGAALQRFIQWLV-NH2 (N-terminus assumed; SMILES CC[C@H](C)[C@H](NC(=O)[C@H](Cc1ccccc1)NC(=O)[C@H](CCCNC(=N)N)NC(=O)[C@H](CCC(N)=O)NC(=O)[C@H](CC(C)C)NC(=O)[C@H](C)NC(=O)[C@H](C)NC(=O)CNC(=O)[C@H](CCC(=O)O)NC(=O)[C@H](CC(C)C)NC(=O)[C@H](CC(C)C)NC(=O)[C@H](CCCNC(=N)N)NC(=O)[C@H](CO)NC(=O)[C@@H](NC(=O)[C@H](CC(=O)O)NC(=O)[C@H](CO)NC(=O)[C@@H](NC(=O)[C@H](Cc1ccccc1)NC(=O)[C@@H](NC(=O)CNC(=O)[C@H](CCC(=O)O)NC(=O)C(C)(C)NC(=O)[C@@H](N)Cc1c[nH]cn1)[C@@H](C)O)[C@@H](C)O)C(C)C)C(=O)N[C@@H](CCC(N)=O)C(=O)N[C@@H](Cc1c[nH]c2ccccc12)C(=O)N[C@@H](CC(C)C)C(=O)N[C@H](C(N)=O)C(C)C) [SEQ ID NO: 178]
7 | 10.5 -log M | 5.5 -log M | H[Aib]EGTFTSDVSYLFEEA[Aib]LQRFLEK([AEEA-AEEA-γGlu-C20 diacid])LV-NH2 [SEQ ID NO: 176]
8 | 10.8 -log M | 6.3 -log M | H[Aib]EGTFTSDVSFLLEGAALQRFIQWLV-NH2 (N-terminus assumed; SMILES CC[C@H](C)[C@H](NC(=O)[C@H](Cc1ccccc1)NC(=O)[C@H](CCCNC(=N)N)NC(=O)[C@H](CCC(N)=O)NC(=O)[C@H](CC(C)C)NC(=O)[C@H](C)NC(=O)[C@H](C)NC(=O)CNC(=O)[C@H](CCC(=O)O)NC(=O)[C@H](CC(C)C)NC(=O)[C@H](CC(C)C)NC(=O)[C@H](Cc1ccccc1)NC(=O)[C@H](CO)NC(=O)[C@@H](NC(=O)[C@H](CC(=O)O)NC(=O)[C@H](CO)NC(=O)[C@@H](NC(=O)[C@H](Cc1ccccc1)NC(=O)[C@@H](NC(=O)CNC(=O)[C@H](CCC(=O)O)NC(=O)C(C)(C)NC(=O)[C@@H](N)Cc1c[nH]cn1)[C@@H](C)O)[C@@H](C)O)C(C)C)C(=O)N[C@@H](CCC(N)=O)C(=O)N[C@@H](Cc1c[nH]c2ccccc12)C(=O)N[C@@H](CC(C)C)C(=O)N[C@H](C(N)=O)C(C)C) [SEQ ID NO: 177]
9 | 10.8 -log M | 6.7 -log M | H[Aib]EGTFTSDVSELLEGAALQRFIQWLV-NH2 (N-terminus assumed; SMILES CC[C@H](C)[C@H](NC(=O)[C@H](Cc1ccccc1)NC(=O)[C@H](CCCNC(=N)N)NC(=O)[C@H](CCC(N)=O)NC(=O)[C@H](CC(C)C)NC(=O)[C@H](C)NC(=O)[C@H](C)NC(=O)CNC(=O)[C@H](CCC(=O)O)NC(=O)[C@H](CC(C)C)NC(=O)[C@H](CC(C)C)NC(=O)[C@H](CCC(=O)O)NC(=O)[C@H](CO)NC(=O)[C@@H](NC(=O)[C@H](CC(=O)O)NC(=O)[C@H](CO)NC(=O)[C@@H](NC(=O)[C@H](Cc1ccccc1)NC(=O)[C@@H](NC(=O)CNC(=O)[C@H](CCC(=O)O)NC(=O)C(C)(C)NC(=O)[C@@H](N)Cc1c[nH]cn1)[C@@H](C)O)[C@@H](C)O)C(C)C)C(=O)N[C@@H](CCC(N)=O)C(=O)N[C@@H](Cc1c[nH]c2ccccc12)C(=O)N[C@@H](CC(C)C)C(=O)N[C@H](C(N)=O)C(C)C) [SEQ ID NO: 180]
10 | 10.6 -log M | 6.6 -log M | H[Aib]EGTFTSDVSVLLEGAALQRFIQWLV-NH2 (N-terminus assumed; SMILES CC[C@H](C)[C@H](NC(=O)[C@H](Cc1ccccc1)NC(=O)[C@H](CCCNC(=N)N)NC(=O)[C@H](CCC(N)=O)NC(=O)[C@H](CC(C)C)NC(=O)[C@H](C)NC(=O)[C@H](C)NC(=O)CNC(=O)[C@H](CCC(=O)O)NC(=O)[C@H](CC(C)C)NC(=O)[C@H](CC(C)C)NC(=O)[C@@H](NC(=O)[C@H](CO)NC(=O)[C@@H](NC(=O)[C@H](CC(=O)O)NC(=O)[C@H](CO)NC(=O)[C@@H](NC(=O)[C@H](Cc1ccccc1)NC(=O)[C@@H](NC(=O)CNC(=O)[C@H](CCC(=O)O)NC(=O)C(C)(C)NC(=O)[C@@H](N)Cc1c[nH]cn1)[C@@H](C)O)[C@@H](C)O)C(C)C)C(C)C)C(=O)N[C@@H](CCC(N)=O)C(=O)N[C@@H](Cc1c[nH]c2ccccc12)C(=O)N[C@@H](CC(C)C)C(=O)N[C@H](C(N)=O)C(C)C) [SEQ ID NO: 184]
11 | 10.5 -log M | 6.3 -log M | H[Aib]EGTFTSDVSELK([AEEA-AEEA-γGlu-C20 diacid])E[Aib]AAEQRFLEHLV-NH2 [SEQ ID NO: 18]
12 | 11.2 -log M | 7.3 -log M | H[Aib]EGTFTSDWSYLK([AEEA-AEEA-γGlu-C20 diacid])EEA[Aib]LQRFLEHLV-NH2 [SEQ ID NO: 185]
13 | 10.1 -log M | 6.2 -log M | H[Aib]EGTFTSDVSRLK([AEEA-AEEA-γGlu-C20 diacid])ELAASQRFLEHLV-NH2 [SEQ ID NO: 19]
